Data published in PMC10912200 (Nature Communications, 2024).

B1: Fc-His-TMPRSS2^ECD [change] (Fc fusion)
chain: WKFMGSKCSNSGIECDSSGTCINPSNWCDGVSHCPGGEDENRCVRLYGPNFILQVYSSQRKSWHPVCQDDWNENYGRAACRDMGYKNNFYSSQGIVDDSGSTSFMKLNTSAGNVDIYKKLYHSDACSSKAVVSLRCIACGVNLNSSRQSQIVGGESALPGAWPWQVSLHVQNVHVCGGSIITPEWIVTAAHCVEKPLNNPWHWTAFAGILRQSFMFYGAGYQVEKVISHPNYDSKTKNNDIALMKLQKPLTFNDLVKPVCLPNPGMMLQPEQLCWISGWGATEEKGKTSEVLNAAKVLLIETQRCNSRYVYANLITPAMICAGFLQGNVDSCQGDSGGPLVTSKNNIWWLIGDTSWGSGCAKAYRPGVYGNVMVFTDWIYRQMRADG
notes: source: Expi293F, transfected, purified from the supernatant (TALON resin, SEC)
B2: Fc-His-TMPRSS2^ECD [change] (Fc fusion)
chain: WKFMGSKCSNSGIECDSSGTCINPSNWCDGVSHCPGGEDENRCVRLYGPNFILQVYSSQRKSWHPVCQDDWNENYGRAACRDMGYKNNFYSSQGIVDDSGSTSFMKLNTSAGNVDIYKKLYHSDACSSKAVVSLRCIACGVNLNSSRQSQIVGGESALPGAWPWQVSLHVQNVHVCGGSIITPEWIVTAAHCVEKPRNNPWHWTAFAGILRQSFMFYGAGYQVEKVISHPNYDSKTKNNDIALMKLQKPLTFNDLVKPVCLPNPGMMLQPEQLCWISGWGATEEKGKTSEVLNAAKVLLIETQRCNSRYVYDNLITPAMICAGFLQGNVDSCQGDSGGPLVTSKNNIWWLIGDTSWGSGCAKAYRPGVYGNVMVFTDWIYRQMRADG
notes: as for B1
B3: Fc-His-TMPRSS2^ECD [change] (Fc fusion)
chain: WKFMGSKCSNSGIECDSSGTCINPSNWCDGVSHCPGGEDENRCVRLYGPNFILQVYSSQRKSWHPVCQDDWNENYGRAACRDMGYKNNFYSSQGIVDDSGSTSFMKLNTSAGNVDIYKKLYHSDACSSKAVVSLRCIACGVNLNSSRQSQIVGGESALPGAWPWQVSLHVQNVHVCGGSIITPEWIVTAAHCVEKPLNNPWHWTAFAGILRQSFMFYGAGYQVEKVISHPNYDSKTKNNDIALMKLQKPLTFNDLVKPVCLPNPGMMLQPEQLCWISGWGATEEKGKTSEVLNAAKVLLIETQRCNSRYVYDNRITPAMICAGFLQGNVDSCQGDSGGPLVTSKNNIWWLIGDTSWGSGCAKAYRPGVYGNVMVFTDWIYRQMRADG
notes: as for B1
B4: Fc-His-TMPRSS2^ECD [change] (Fc fusion)
chain: WKFMGSKCSNSGIECDSSGTCINPSNWCDGVSHCPGGEDENRCVRLYGPNFILQVYSSQRKSWHPVCQDDWNENYGRAACRDMGYKNNFYSSQGIVDDSGSTSFMKLNTSAGNVDIYKKLYHSDACSSKAVVSLRCIACGVNLNSSRQSQIVGGESALPGAWPWQVSLHRQNVHVCGGSIITPEWIVTAAHCVEKPLNNPWHWTAFAGILRQSFMFYGAGYQVEKVISHPNYDSKTKNNDIALMKLQKPLTFNDLVKPVCLPNPGMMLQPEQLCWISGWGATEEKGKTSEVLNAAKVLLIETQRCNSRYVYDNLITPAMICAGFLQGNVDSCQGDSGGPLVTSKNNIWWLIGDTSWGSGCAKAYRPGVYGNVMVFTDWIYRQMRADG
notes: as for B1
B5: Fc-His-TMPRSS2^ECD (Fc fusion)
chain: WKFMGSKCSNSGIECDSSGTCINPSNWCDGVSHCPGGEDENRCVRLYGPNFILQVYSSQRKSWHPVCQDDWNENYGRAACRDMGYKNNFYSSQGIVDDSGSTSFMKLNTSAGNVDIYKKLYHSDACSSKAVVSLRCIACGVNLNSSRQSQIVGGESALPGAWPWQVSLHVQNVHVCGGSIITPEWIVTAAHCVEKPLNNPWHWTAFAGILRQSFMFYGAGYQVEKVISHPNYDSKTKNNDIALMKLQKPLTFNDLVKPVCLPNPGMMLQPEQLCWISGWGATEEKGKTSEVLNAAKVLLIETQRCNSRYVYDNLITPAMICAGFLQGNVDSCQGDSGGPLVTSKNNIWWLIGDTSWGSGCAKAYRPGVYGNVMVFTDWIYRQMRADG
B6: Fc-His-TMPRSS2^ECD [change] (Fc fusion)
chain: WKFMGSKCSNSGIECDSSGTCINPSNWCDGVSHCPGGEDENRCVRLYGPNFILQVYSSQRKSWHPVCQDDWNENYGRAACRDMGYKNNFYSSQGIVDDSGSTSFMKLNTSAGNVDIYKKLYHSDACSSKAVVSLRCIACGVNLNSSRQSQIVGGESALPGAWPWQVSLHVQNVHVCGGSIITPEWIVTAAHCVEKPLNNPWAWTAFAGILRQSFMFYGAGYQVEKVISHPNYDSKTKNNDIALMKLQKPLTFNDLVKPVCLPNPGMMLQPEQLCWISGWGATEEKGKTSEVLNAAKVLLIETQRCNSRYVYDNLITPAMICAGFLQGNVDSCQGDSGGPLVTSKNNIWWLIGDTSWGSGCAKAYRPGVYGNVMVFTDWIYRQMRADG
notes: as for B1
B7: Fc-His-TMPRSS2^ECD [change] (Fc fusion)
chain: WKFMGSKCSNSGIECDSSGTCINPSNWCDGVSHCPGGEDENRCVRLYGPNFILQVYSSQRKSWHPVCQDDWNENYGRAACRDMGYKNNFYSSQGIVDDSGSTSFMKLNTSAGNVDIYKKLYHSDACSSKAVVSLRCIACGVNLNSSRQSQIVGGESALPGAWPWQVSLHVANVHVCGGSIITPEWIVTAAHCVEKPLNNPWHWTAFAGILRQSFMFYGAGYQVEKVISHPNYDSKTKNNDIALMKLQKPLTFNDLVKPVCLPNPGMMLQPEQLCWISGWGATEEKGKTSEVLNAAKVLLIETQRCNSRYVYDNLITPAMICAGFLQGNVDSCQGDSGGPLVTSKNNIWWLIGDTSWGSGCAKAYRPGVYGNVMVFTDWIYRQMRADG
notes: as for B1

Legend:
Details in all cases: both partners purified
[1] = biological target: T1, TcsH^2210-2618, His-tagged (Paeniclostridium sordellii, UniProt M9ZTT7 2210-2618); test: pull-down
T1 construct: not shown: His, C-terminal, kept
T1 sequence: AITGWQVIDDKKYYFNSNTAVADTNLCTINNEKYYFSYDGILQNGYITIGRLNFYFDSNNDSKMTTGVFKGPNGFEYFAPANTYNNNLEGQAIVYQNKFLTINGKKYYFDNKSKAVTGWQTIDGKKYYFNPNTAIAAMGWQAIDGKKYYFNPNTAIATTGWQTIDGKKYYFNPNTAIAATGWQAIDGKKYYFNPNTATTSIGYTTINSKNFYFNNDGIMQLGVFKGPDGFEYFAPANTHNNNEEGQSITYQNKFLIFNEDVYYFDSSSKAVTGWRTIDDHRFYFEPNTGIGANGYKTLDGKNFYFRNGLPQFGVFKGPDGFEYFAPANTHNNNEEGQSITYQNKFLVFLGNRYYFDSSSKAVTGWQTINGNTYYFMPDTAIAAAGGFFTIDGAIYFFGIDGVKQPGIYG

[2] = biological target: T1, TcsH^2210-2618, His-tagged; test: BLI
MBP-fused TcsH^2236-2618 = biological target: T2, MBP-fused TcsH^2236-2618 (Paeniclostridium sordellii, UniProt M9ZTT7 2236-2618); test: BLI
T2 construct: source: E. coli BL21(DE3), purified (Amylose resin, SEC)
T2 sequence: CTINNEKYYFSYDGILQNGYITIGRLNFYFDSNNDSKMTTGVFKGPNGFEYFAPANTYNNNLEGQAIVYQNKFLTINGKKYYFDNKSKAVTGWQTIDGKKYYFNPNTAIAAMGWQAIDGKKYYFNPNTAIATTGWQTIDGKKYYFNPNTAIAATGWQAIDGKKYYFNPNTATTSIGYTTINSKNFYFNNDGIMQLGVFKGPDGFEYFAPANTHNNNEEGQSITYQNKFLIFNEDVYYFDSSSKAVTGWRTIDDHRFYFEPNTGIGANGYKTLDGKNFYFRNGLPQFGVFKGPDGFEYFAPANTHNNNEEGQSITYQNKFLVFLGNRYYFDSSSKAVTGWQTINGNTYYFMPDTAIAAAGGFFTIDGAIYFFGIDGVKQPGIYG

Binder | binding result [1] | Kd [2] [nM] | Kd (MBP-fused TcsH^2236-2618) [nM]
B1 | binds |  | 
B2 | binds |  | 
B3 | binds |  | 
B4 | binds |  | 
B5 |  | 0.37 | 0.75
B6 | binds |  | 
B7 | binds |  | 
